Source: patent US20190185537A1 (AstraZeneca / MedImmune, published 2019)
Blank lines part the entries; values can stand above or below the binder they belong to. Numbered stars: 1 amine (or outer) side, 2 acyl side, 3 side chain; on linkers, the order of the positions; unused ones are H or OH. Side chains are listed from the residue outwards. Ends that are not written are not given here. * marks the point of attachment. γGlu = O=C(O)[C@H](CCC(=O)[*:2])N[*:1]; Palmitoyl = CCCCCCCCCCCCCCCC(=O)*

Key:
Assay in all cases: cell-based or functional assay
[1] = target: T1, human glucose-dependent insulinotropic peptide (gastric inhibitory polypeptide) receptor (human) (UniProt P48546)
T1 sequence (looked up): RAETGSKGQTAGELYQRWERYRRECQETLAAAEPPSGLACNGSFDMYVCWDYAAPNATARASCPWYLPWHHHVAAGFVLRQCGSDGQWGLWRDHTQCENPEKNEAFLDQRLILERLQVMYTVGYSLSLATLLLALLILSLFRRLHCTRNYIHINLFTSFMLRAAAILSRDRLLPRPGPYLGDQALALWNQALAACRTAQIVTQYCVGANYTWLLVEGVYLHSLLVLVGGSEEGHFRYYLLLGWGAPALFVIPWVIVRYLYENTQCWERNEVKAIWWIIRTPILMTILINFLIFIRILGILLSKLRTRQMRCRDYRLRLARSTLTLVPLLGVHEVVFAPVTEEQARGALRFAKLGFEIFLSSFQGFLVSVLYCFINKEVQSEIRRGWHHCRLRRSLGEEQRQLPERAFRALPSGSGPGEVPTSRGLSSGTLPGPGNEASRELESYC

human glucagon receptor = human glucagon receptor (human, UniProt P47871 26-477)
human GLP-1 receptor = human GLP-1 receptor (human, UniProt P43220 24-463)
Sequence of human GLP-1 receptor (P43220 24-463): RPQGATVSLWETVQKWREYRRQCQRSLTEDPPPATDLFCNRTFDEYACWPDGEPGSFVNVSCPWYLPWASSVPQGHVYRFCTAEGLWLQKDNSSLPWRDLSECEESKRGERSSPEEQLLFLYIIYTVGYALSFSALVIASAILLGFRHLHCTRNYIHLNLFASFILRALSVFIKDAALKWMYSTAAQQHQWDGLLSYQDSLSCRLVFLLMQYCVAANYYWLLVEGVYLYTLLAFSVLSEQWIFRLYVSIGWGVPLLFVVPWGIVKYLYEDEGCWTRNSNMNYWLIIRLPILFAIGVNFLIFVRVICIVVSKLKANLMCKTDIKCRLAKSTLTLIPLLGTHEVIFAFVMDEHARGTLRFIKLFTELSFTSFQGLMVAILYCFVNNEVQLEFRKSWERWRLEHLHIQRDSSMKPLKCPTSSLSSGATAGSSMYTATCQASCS

Sequence of human glucagon receptor (P47871 26-477): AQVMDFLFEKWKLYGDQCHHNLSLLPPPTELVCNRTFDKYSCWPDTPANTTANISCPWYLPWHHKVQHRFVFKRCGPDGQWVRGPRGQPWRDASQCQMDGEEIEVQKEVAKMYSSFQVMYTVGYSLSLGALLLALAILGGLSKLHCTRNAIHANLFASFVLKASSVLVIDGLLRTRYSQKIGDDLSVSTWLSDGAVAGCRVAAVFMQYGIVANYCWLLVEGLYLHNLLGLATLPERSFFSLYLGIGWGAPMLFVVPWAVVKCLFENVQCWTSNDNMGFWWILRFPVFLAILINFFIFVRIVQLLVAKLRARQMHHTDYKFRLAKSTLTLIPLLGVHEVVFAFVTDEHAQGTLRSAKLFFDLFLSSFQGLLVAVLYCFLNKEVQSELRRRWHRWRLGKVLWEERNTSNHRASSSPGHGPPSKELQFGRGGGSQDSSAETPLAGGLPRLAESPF

B1: g804 (peptide)
peptide: HSQGTFTSDYSKYK([γGlu-Palmitoyl])DSRRARDFVAWLEA-NH2
modifications: N-terminus assumed
SMILES: CCCCCCCCCCCCCCCC(=O)N[C@@H](CCC(=O)NCCCC[C@H](NC(=O)[C@H](Cc1ccc(O)cc1)NC(=O)[C@H](CCCCN)NC(=O)[C@H](CO)NC(=O)[C@H](Cc1ccc(O)cc1)NC(=O)[C@H](CC(=O)O)NC(=O)[C@H](CO)NC(=O)[C@@H](NC(=O)[C@H](Cc1ccccc1)NC(=O)[C@@H](NC(=O)CNC(=O)[C@H](CCC(N)=O)NC(=O)[C@H](CO)NC(=O)[C@@H](N)Cc1c[nH]cn1)[C@@H](C)O)[C@@H](C)O)C(=O)N[C@@H](CC(=O)O)C(=O)N[C@@H](CO)C(=O)N[C@@H](CCCNC(=N)N)C(=O)N[C@@H](CCCNC(=N)N)C(=O)N[C@@H](C)C(=O)N[C@@H](CCCNC(=N)N)C(=O)N[C@@H](CC(=O)O)C(=O)N[C@@H](Cc1ccccc1)C(=O)N[C@H](C(=O)N[C@@H](C)C(=O)N[C@@H](Cc1c[nH]c2ccccc12)C(=O)N[C@@H](CC(C)C)C(=O)N[C@@H](CCC(=O)O)C(=O)N[C@@H](C)C(N)=O)C(C)C)C(=O)O
cAMP EC50 (assay 1) [1]: 99.7 nM | cAMP EC50 (assay 1) (human glucagon receptor): 0.00195 nM | cAMP EC50 (assay 1) (human GLP-1 receptor): 0.0715 nM

B2: g781 (peptide)
peptide: HSQGTFTSDYSKYLDK([γGlu-Palmitoyl])RRARDFVAWLEAGG-NH2
modifications: N-terminus assumed
SMILES: CCCCCCCCCCCCCCCC(=O)N[C@@H](CCC(=O)NCCCC[C@H](NC(=O)[C@H](CC(=O)O)NC(=O)[C@H](CC(C)C)NC(=O)[C@H](Cc1ccc(O)cc1)NC(=O)[C@H](CCCCN)NC(=O)[C@H](CO)NC(=O)[C@H](Cc1ccc(O)cc1)NC(=O)[C@H](CC(=O)O)NC(=O)[C@H](CO)NC(=O)[C@@H](NC(=O)[C@H](Cc1ccccc1)NC(=O)[C@@H](NC(=O)CNC(=O)[C@H](CCC(N)=O)NC(=O)[C@H](CO)NC(=O)[C@@H](N)Cc1c[nH]cn1)[C@@H](C)O)[C@@H](C)O)C(=O)N[C@@H](CCCNC(=N)N)C(=O)N[C@@H](CCCNC(=N)N)C(=O)N[C@@H](C)C(=O)N[C@@H](CCCNC(=N)N)C(=O)N[C@@H](CC(=O)O)C(=O)N[C@@H](Cc1ccccc1)C(=O)N[C@H](C(=O)N[C@@H](C)C(=O)N[C@@H](Cc1c[nH]c2ccccc12)C(=O)N[C@@H](CC(C)C)C(=O)N[C@@H](CCC(=O)O)C(=O)N[C@@H](C)C(=O)NCC(=O)NCC(N)=O)C(C)C)C(=O)O
cAMP EC50 (assay 1) [1]: 402 nM | cAMP EC50 (assay 1) (human glucagon receptor): 0.00286 nM | cAMP EC50 (assay 1) (human GLP-1 receptor): 0.104 nM

B3: g805 (peptide)
peptide: HSQGTFTSDYSKYK([γGlu-Palmitoyl])DSRRARDFVEWLEAGG-NH2
modifications: N-terminus assumed
SMILES: CCCCCCCCCCCCCCCC(=O)N[C@@H](CCC(=O)NCCCC[C@H](NC(=O)[C@H](Cc1ccc(O)cc1)NC(=O)[C@H](CCCCN)NC(=O)[C@H](CO)NC(=O)[C@H](Cc1ccc(O)cc1)NC(=O)[C@H](CC(=O)O)NC(=O)[C@H](CO)NC(=O)[C@@H](NC(=O)[C@H](Cc1ccccc1)NC(=O)[C@@H](NC(=O)CNC(=O)[C@H](CCC(N)=O)NC(=O)[C@H](CO)NC(=O)[C@@H](N)Cc1c[nH]cn1)[C@@H](C)O)[C@@H](C)O)C(=O)N[C@@H](CC(=O)O)C(=O)N[C@@H](CO)C(=O)N[C@@H](CCCNC(=N)N)C(=O)N[C@@H](CCCNC(=N)N)C(=O)N[C@@H](C)C(=O)N[C@@H](CCCNC(=N)N)C(=O)N[C@@H](CC(=O)O)C(=O)N[C@@H](Cc1ccccc1)C(=O)N[C@H](C(=O)N[C@@H](CCC(=O)O)C(=O)N[C@@H](Cc1c[nH]c2ccccc12)C(=O)N[C@@H](CC(C)C)C(=O)N[C@@H](CCC(=O)O)C(=O)N[C@@H](C)C(=O)NCC(=O)NCC(N)=O)C(C)C)C(=O)O
cAMP EC50 (assay 1) [1]: 99.7 nM | cAMP EC50 (assay 1) (human glucagon receptor): 0.00144 nM | cAMP EC50 (assay 1) (human GLP-1 receptor): 0.0228 nM

Now from value to binder:

cAMP EC50 (assay 1) [1]: 100 nM | cAMP EC50 (assay 1) (human glucagon receptor): 0.0155 nM | cAMP EC50 (assay 1) (human GLP-1 receptor): 0.124 nM
B4: g836 (peptide)
peptide: HSQGTFTSDYSKYK([γGlu-Palmitoyl])DSERARDFVEWLEAGG-NH2
modifications: N-terminus assumed
SMILES: CCCCCCCCCCCCCCCC(=O)N[C@@H](CCC(=O)NCCCC[C@H](NC(=O)[C@H](Cc1ccc(O)cc1)NC(=O)[C@H](CCCCN)NC(=O)[C@H](CO)NC(=O)[C@H](Cc1ccc(O)cc1)NC(=O)[C@H](CC(=O)O)NC(=O)[C@H](CO)NC(=O)[C@@H](NC(=O)[C@H](Cc1ccccc1)NC(=O)[C@@H](NC(=O)CNC(=O)[C@H](CCC(N)=O)NC(=O)[C@H](CO)NC(=O)[C@@H](N)Cc1c[nH]cn1)[C@@H](C)O)[C@@H](C)O)C(=O)N[C@@H](CC(=O)O)C(=O)N[C@@H](CO)C(=O)N[C@@H](CCC(=O)O)C(=O)N[C@@H](CCCNC(=N)N)C(=O)N[C@@H](C)C(=O)N[C@@H](CCCNC(=N)N)C(=O)N[C@@H](CC(=O)O)C(=O)N[C@@H](Cc1ccccc1)C(=O)N[C@H](C(=O)N[C@@H](CCC(=O)O)C(=O)N[C@@H](Cc1c[nH]c2ccccc12)C(=O)N[C@@H](CC(C)C)C(=O)N[C@@H](CCC(=O)O)C(=O)N[C@@H](C)C(=O)NCC(=O)NCC(N)=O)C(C)C)C(=O)O

cAMP EC50 (assay 1) [1]: 89.6 nM | cAMP EC50 (assay 1) (human glucagon receptor): 0.00219 nM | cAMP EC50 (assay 1) (human GLP-1 receptor): 0.0212 nM
B5: g850 (peptide)
peptide: HSQGTFTSDYSRYK([γGlu-Palmitoyl])DSRSARDFVAWLEA-NH2
modifications: N-terminus assumed
SMILES: CCCCCCCCCCCCCCCC(=O)N[C@@H](CCC(=O)NCCCC[C@H](NC(=O)[C@H](Cc1ccc(O)cc1)NC(=O)[C@H](CCCNC(=N)N)NC(=O)[C@H](CO)NC(=O)[C@H](Cc1ccc(O)cc1)NC(=O)[C@H](CC(=O)O)NC(=O)[C@H](CO)NC(=O)[C@@H](NC(=O)[C@H](Cc1ccccc1)NC(=O)[C@@H](NC(=O)CNC(=O)[C@H](CCC(N)=O)NC(=O)[C@H](CO)NC(=O)[C@@H](N)Cc1c[nH]cn1)[C@@H](C)O)[C@@H](C)O)C(=O)N[C@@H](CC(=O)O)C(=O)N[C@@H](CO)C(=O)N[C@@H](CCCNC(=N)N)C(=O)N[C@@H](CO)C(=O)N[C@@H](C)C(=O)N[C@@H](CCCNC(=N)N)C(=O)N[C@@H](CC(=O)O)C(=O)N[C@@H](Cc1ccccc1)C(=O)N[C@H](C(=O)N[C@@H](C)C(=O)N[C@@H](Cc1c[nH]c2ccccc12)C(=O)N[C@@H](CC(C)C)C(=O)N[C@@H](CCC(=O)O)C(=O)N[C@@H](C)C(N)=O)C(C)C)C(=O)O

cAMP EC50 (assay 1) [1]: 15.2 nM | cAMP EC50 (assay 1) (human glucagon receptor): 0.00168 nM | cAMP EC50 (assay 1) (human GLP-1 receptor): 0.0251 nM
B6: g817 (peptide)
peptide: HSQGTFTSDYSKYK([γGlu-Palmitoyl])DSRAAQDFVQWLEAGG-NH2
modifications: N-terminus assumed
SMILES: CCCCCCCCCCCCCCCC(=O)N[C@@H](CCC(=O)NCCCC[C@H](NC(=O)[C@H](Cc1ccc(O)cc1)NC(=O)[C@H](CCCCN)NC(=O)[C@H](CO)NC(=O)[C@H](Cc1ccc(O)cc1)NC(=O)[C@H](CC(=O)O)NC(=O)[C@H](CO)NC(=O)[C@@H](NC(=O)[C@H](Cc1ccccc1)NC(=O)[C@@H](NC(=O)CNC(=O)[C@H](CCC(N)=O)NC(=O)[C@H](CO)NC(=O)[C@@H](N)Cc1c[nH]cn1)[C@@H](C)O)[C@@H](C)O)C(=O)N[C@@H](CC(=O)O)C(=O)N[C@@H](CO)C(=O)N[C@@H](CCCNC(=N)N)C(=O)N[C@@H](C)C(=O)N[C@@H](C)C(=O)N[C@@H](CCC(N)=O)C(=O)N[C@@H](CC(=O)O)C(=O)N[C@@H](Cc1ccccc1)C(=O)N[C@H](C(=O)N[C@@H](CCC(N)=O)C(=O)N[C@@H](Cc1c[nH]c2ccccc12)C(=O)N[C@@H](CC(C)C)C(=O)N[C@@H](CCC(=O)O)C(=O)N[C@@H](C)C(=O)NCC(=O)NCC(N)=O)C(C)C)C(=O)O

cAMP EC50 (assay 1) [1]: 79 nM | cAMP EC50 (assay 1) (human glucagon receptor): 0.0104 nM | cAMP EC50 (assay 1) (human GLP-1 receptor): 0.0863 nM
B7: g876 (peptide)
peptide: HSQGTFTSDYSEYK([γGlu-Palmitoyl])DSRRARDFVEWLEAGG-NH2
modifications: N-terminus assumed
SMILES: CCCCCCCCCCCCCCCC(=O)N[C@@H](CCC(=O)NCCCC[C@H](NC(=O)[C@H](Cc1ccc(O)cc1)NC(=O)[C@H](CCC(=O)O)NC(=O)[C@H](CO)NC(=O)[C@H](Cc1ccc(O)cc1)NC(=O)[C@H](CC(=O)O)NC(=O)[C@H](CO)NC(=O)[C@@H](NC(=O)[C@H](Cc1ccccc1)NC(=O)[C@@H](NC(=O)CNC(=O)[C@H](CCC(N)=O)NC(=O)[C@H](CO)NC(=O)[C@@H](N)Cc1c[nH]cn1)[C@@H](C)O)[C@@H](C)O)C(=O)N[C@@H](CC(=O)O)C(=O)N[C@@H](CO)C(=O)N[C@@H](CCCNC(=N)N)C(=O)N[C@@H](CCCNC(=N)N)C(=O)N[C@@H](C)C(=O)N[C@@H](CCCNC(=N)N)C(=O)N[C@@H](CC(=O)O)C(=O)N[C@@H](Cc1ccccc1)C(=O)N[C@H](C(=O)N[C@@H](CCC(=O)O)C(=O)N[C@@H](Cc1c[nH]c2ccccc12)C(=O)N[C@@H](CC(C)C)C(=O)N[C@@H](CCC(=O)O)C(=O)N[C@@H](C)C(=O)NCC(=O)NCC(N)=O)C(C)C)C(=O)O
